Measurements taken from publication PMC10106861.

Tests used:
[1] = target: GhWRKY41 full length as GhWRKY41-NLuc and GhWRKY41-CLuc, expressed in cotton protoplasts (Gossypium hirsutum); assay: split reporter
[2] = target: GhWRKY41-Myc fusion protein (Gossypium hirsutum); assay: immunoprecipitation and Western blot

fold luciferase activity (after V. dahliae supernatant) [1]	fold luciferase activity (after chitin solution) [1]	fold luciferase activity over the negative control (normal condition) [1]	stoichiometry N [2]	Substance
23 fold	27 fold	10 fold		GhWRKY41 full length as GhWRKY41-NLuc and GhWRKY41-CLuc, expressed in cotton protoplasts (natural protein)
			2	GhWRKY41-Myc fusion protein (natural protein)
